{"source": "a protein production outcome set (Wang et al. 2014)", "test": "label from the status in PepcDB records"}
{"sequence": "MTDRAPADKYVVWVVLALSSVGVVAVYSAVTYLAEVRAGTEPVHFLLRHLARVGIALGAMGVVSLIDYRTLARYSRLALVGTLLLLVAVKVVGLFSGGADRWLQIGGVGFQPSEFARVALVLYVAVLLVQKQDYVKSFSRTFLPVLFWVGVTVGLIALDDLSTALVLLLGVLLMSFVGRVSVLQIGGLAVLGGVMAFGVLSTSPDRAARLEAYLGMDLFPNTDTEQVMDARGEQYQSRQARMAFAAGGFTGVGPGKSVQRDFLPEPYNDFIFAIIAEEYGIFGALALLTGFFVLLFRGYLRIARDAPDPLGLILAVGMTTLVVTYGFVHAGVASGLLPVTGLPMPFVSYGGTSLLANGIMIGVLLNISRHAGQRSAERV", "values": [{"measurement": "protein production", "result": "failed"}]}
{"sequence": "MKKIICYLSLSALSLSSFSQTQIANGDFENWSSSEYCSALDSLDNFLTGQAFFYLNAKNETDAIECPALPFTYKTTDKQSGSYALKLGPQYFDDKAYYNFVTLGEAAYFEEEGSVASFGIPFTGRPSKLTGYYKCTAGAVGDELQIKVFGSNFTSEDPLFYGVFTASENQPMYEKFEIDLVYDPTDPNNAVYLSMLITVGNLNDGSIDENTVAFIDNLVFEYDATAATSYTPVSPIHVFASNKTISFSEHVSDIHVVDMVGANNIQEAASTKTLHAETLNSGLYIVTYNYKGNYFSKKVVIE", "values": [{"measurement": "protein production", "result": "failed"}]}
{"sequence": "MFKNNSYKVGVLALALSMALTGCVSDGDDGEQGLKGEQGAPGVVGVDGNDGKSLPRDLNVEVVGRFATGIYGKSAAEIVQFHKSSNAAFAINGASNQIEVISLTNLSTTAVGNPVADESLTSNAFIFPLNVSVTNSAGVEKDMSLGAVNSIAIKKDLLAIAVEGEIKQAHGAILFYSLNELGEGTFIKAVEVGALPDMVTFTPDGSKALVANEGEPNTDYTNDPEGSISVISVVDLMPANVAKTINLSTDIVFSDDNLVPEDFDTDAKRLAILSKAGVKFAGPAGNTVAKDLEPEYITTSSNSKMAYVSLQENNAIGIINLEELTIEVKALGYKDWGKYQLDFSNKDEVPEFKSIQGLYGMYQPDTLASYTWNDTTFIVSANEGDARDYDGFSEEVRVKDIIDTDELNQTLSSELQSQYDVSGGKNYLGRLKVTTALGDEDQNGEFEKLFAYGARSFSIWDKNANLVFDSGDDFGKISAAIMGDNFNAAHTKNKGDNRSDDKGGEPEAIDVGEIAGRTYAFIAQERAGDLFVYDITNPFKTAFVTHYNNRDFTVDYEMDDDLADPCDSSEGMDCTKVNSAGDLGPESIKFVSAIDSPTSKPLLIIGNEVSGTVTVYQITEQ", "values": [{"measurement": "protein production", "result": "failed"}]}
{"sequence": "MVQSSVRRKGARPRDRQTGEPGWDDSLYDDNGEPVQDGRGSGRGGGSAQGGGDGDGPPDEAKGHSRHGGGRRRGGKGDGGGGRPRRRRRVLRWSATVLAVLILGTAGAGYLYYQHLNDNIKKDDLYLGDDKDRAAKPKANAAGQTPLNILLIGSDARDSAANQKLGGAKDTYGGTPRADVQMLLHLSADRSNMSVVSMPRDTLLEIPKCTDPKTSHTYAAITYPTMTNNSLGRGGPGCTVATWEKFTDIHIDHFMMVDFAGVVSMADAIGGVPVCVDANIYSHTSTGHGSGLKLKDGTTSIKGKQALQWLRTRYGFEDGSDIGRTKAQHQYMNSMVRQLRENATLSNPNKLRKLAETATNALTVDDGLGTVSKLYDLSKELKKVPTSRITMTTMPWVYSSDGNRVLPKPNDAAKVFRLLREDIALDGKDKKKSPAQKAVAPAHADDKIAVQVQNGTRTSALAPVGGRANAMAQLLVGKGFTGAAADSSTVLSEDKTVIRYPSADLKGDAQRVAKSLGVPLSSVEKSASVSGVTLIVGGDWRSGTTYKAAEDDDTTPASAKLDKGSDTGACMHVDPDYTWS", "values": [{"measurement": "protein production", "result": "failed"}]}
{"sequence": "MPHPAERSRHGRGWFEKLAEAASNLTSSPVFYCFCLLLVFAFIVAHAVGLELTWQLLIGDIMTAVNLLLLALLKNSERRAEHAIQHKLDSIAAALLEQREGHSRQAHEELRKAIGIEDEF", "values": [{"measurement": "protein production", "result": "failed"}]}
{"sequence": "MSLNIEEWEEYRYVEAGIKESITLIEDPGLKKMVEHVCHSGGKRIRPIILLLVSEICSGSYSRSLNAALAVEMMHSASLIHDDLLDQGLVRRNLPSAPEKFGPSGALLCGDYLIAKSIAFISPYGEKVIQDFGKAGMDMAEGEVLDLKLEDESFGENDYFKCIYKKTASLFAISASIGAYTGGAEEELAERFSHFGNALGTAYQIVDDILEFLEVVEGKESKFTSETLPHIYMKSTSKEEALKKSIDCVKLHVAAAKETLETFRECPARDKLFQITDYITVDMLENLEGHHHHHH", "values": [{"measurement": "protein production", "result": "not failed"}]}
{"sequence": "MAFSDDLPPPPRVNDHVKTRRNRKRRTIKTKQLEELISTATRAAHVARDKGFYIVSPEAIQCVEILRHMRTLPLNARLITKTDGLRVLLFLSKNGNPKIRSESKAVIDHWKSILHTKVH", "values": [{"measurement": "protein production", "result": "failed"}]}
{"sequence": "MEYKPIRKVVSGNYAAAYAALHARVQVVAAYPITPQTSIIEKIAEFIANGEADIQYIPVESEHSAMAACIGASATGARTFTATSAQGLALMHEMLHWAAGARLPIVMVDVNRAMAPPWSVWDDQTDSLSQRDTGWMQFYAENNQEVYDGVLMAYKVAETVNVPAMVVESAFILSHTYDVVEMIPQELVDEFLPPRKPLYSLANFDEPIAVGALATPNDYYEFRYKLAKAHEEAKKVIKEVGKEFGERFGRDY", "values": [{"measurement": "protein production", "result": "failed"}]}
{"sequence": "MMKNFVCTTCGVQYAASVEEPVSCHICDEERQYVNPKGQSWTTLENLQTDDTYKNEIIKEENGLYSITTKPGFAIGQTAFVVKTESYRLLWDCITYLDETTITKIKELGGLDAIALSHPHYYSTQVEWAETFDVPIYIHEDDKEWVMRPSSRIIYWSGESLQLADGITVHRLGGHFSGGSVLHWEEGNDGKGILLTGDIIQVVADERWVSFMYSYPNLIPLPARKVEEMVNRVKPLQFNRLYNAFHRVVKENANEAVERSAERYIKAIEGKLFHT", "values": [{"measurement": "protein production", "result": "failed"}]}
{"sequence": "MNFRTGQPSDAAALAAISIEVWLGTYMRKGVSAFFAEYALNEFTSTKMASLLKDPNEHVIVSENEGGIDAFIRLGQGRAAPVSGCSTLEIATLYVQPRHHRRGLGRALLEQGLAYARQASAPSVWLTTNSENAPAIAFYLEQGFEKVGTTHFNIGDQ", "values": [{"measurement": "protein production", "result": "not failed"}]}
{"sequence": "MRAGFFVGILGLAGAILQGANVTEAVGSELVLFPSGGGLSAIAAIVALLTAAVLVAVGIFTGYPIATAFTVTGAVVGVGLAMGGQPATAKYIEIVSLWVLTPFVGGGIAFGTAWSLRHEATTEERLVPLLGGLVGVILANIEFVLLAPGSEQASVARAVARAAGTPIFPSMVVVTLLIGVLAGGLLYLDIRADAAAGQRHFLLVMGGLVAFSAGGSQVGLALGPLVPLLGEGPTAAIPITGVLLFGGLGLLVGSWTGAPRMIKALAQDYSSLGPRRSIGALIPSFIIAQAAVFFGIPVSFNEIIVSAIVGSGAAAGGGEVSREKMGKTVLAWIGSLALAFALSYGLFWIIDAAL", "values": [{"measurement": "protein production", "result": "failed"}]}
{"sequence": "MSTTLLRTIQLNQFSLLGTSLLRRRRSNNFSVRSCGSQTTTTHEAKQSSPTRVAPKNHKSNQLDEILRDYEAVIGIETHVQLSTLTKAFCSCSNNYGSYPNTSICPVCMGLPGALPVLNSKVVEFGVRLGLALNCDLSLKSKFDRKQYFYPDLPKGYQISQFDIPIASGGYVDVDIPLEFGGGHRRFGITRVHMEEDAGKLLHSDTGDYSQVDLNRAGVPLLEIVSEPDMRSGIEAAEYACEMQRIARYLGVSNGNMQEGSLRCDVNISIRPIGQAEFGTKVEIKNLNAFSAISRAIDFEISRQALLYNQGKADQIVTETRLWEEGAQKTVTMRKKEGLADYRYFPEPDLPEVILTQEYVDSIRASLPELPEAKRRRYEAMGLGMQDVLFLANDVSVAEYFDAVIGKGAEVKLAANWIMSDIAAYLKNEKLSINDIKLTPQELAELIAAIKDGTISGKIGKEILFELLAKGGTVKGMIKAKDLVQITDPAEIEKMVIQVVSENPKQLEQYRSGKTKLQGYFAGQVMKMSKGKANPGLLNKILLEKLNAKD", "values": [{"measurement": "protein production", "result": "failed"}]}
{"sequence": "MSKPHALRGVLANLISESQSPLTPESIIREFRATSDRRLPACDLIKVLVSISEKRPNFAEVTKEISHILQNKDPMYALLVFVERYSECKPVSESSSSTSLSAMGLPHGNKTSDVNSAAGSVPTTLAIASTSTILTTSQNVSGSTRLSLTQSQDFPTSTPVNCKKATESDTTPVVFVRRGPMDRNRGAGKDERNDLSVIKERVLNAVSDQSLSGYRSVTNKTGNSPKSMPNDLVTLTDVPDEYRTHLLWEYYKVDGDKVPRAEIAAMPLLSQESMLLDELLHCLTGIRESLLVPQKPIISAVGLAKYDTDFDIHTHLDRSLTHQVREILPLASYFMGVQKIIAATDGLGQVMNSLNEALQELTHDFYLIIVQAEQELRHNRLTLQKLLYYLQPTMWVMHEVWSSLVIIQLSDSRDAEVLTYLHERIKRLEGNKDAQQLIIGLVRKAAKPYMRMLQMWIQKGVIVDRHREFLVVDNEVIHRDELPEHYSDDYWERRYTLRDEQIPSFLAKYSDKILRTGKYLNVIRQCGKRVMPTQEMNLEFDPTSERHVSVINDAYYFAARMLLDVLLTENDLMGHLQSVKRYLLLNQGDFTMQFMDACEDELTKNVDHVLPMTLENLLGLTLRISSARNDPYKDDLHCELLPYDLVTQMSKIMKKEENWQAQPRLDLSGLECFAFTYEVKWPCSLVLNHISISKYQMLFRQLFYCKHVERQLCKIWKENSIARQFEPQAASLYRAAFTLRQRMMNAIQNLEYYMMIEIIEPNWHIFIEKMKTVENVDNVLRLHQDFLDSCLKNCMLTESSHLNRSIFKLCKICLKYCEFIQITQRYFQDAELRSMVRDSADSSESEQESLHCPQIETPLDPTDTFSERVRRFDLEFTQLLISFLKQINSMAKKNTADCFMNLVHRINFNAFYTDQMDKMCVEDAIG", "values": [{"measurement": "protein production", "result": "failed"}]}
{"sequence": "GQTFAGVIRGVQSYGFFVQIEALQVEGLVHVSSPKDDWYEYRSRQQRLIGRKNRRQFGLGDRVEVEIRNVDYYRQQIDLGVLPLP", "values": [{"measurement": "protein production", "result": "failed"}]}
{"sequence": "MKKTLKILAGFVAVVIIIALGIFTSRKLYQNHVDKINHIGKVMDSYKGVKVYYNGKKYAESHGKNYSKDGYYYGYKWQVEYIKRFYYEAKGHSMPNGFGNAKDFFDPKVGQGKLNKDRGLFQYKNGENEKPKADDILVFTDTKYGHVVIVTKVTDDTVEVIQQNMGNKTRDQFKLEYENGKYFVCGKRKPKGWLRKGLEHHHHHH", "values": [{"measurement": "protein production", "result": "not failed"}]}
{"sequence": "MGEPFGGPLMGRLVSLLPSATDLIFELGLGEQLLGVSHCCDHPGAASLPVLTRSIIGSDLPQAEIDRAVSEAVRAGRALYTVDGPLLDRLRPDLVVTQGVCEVCAVTPGTVAEAVRFLPGCLPAEQVLSLEGKTFAGILADLRALARAAGVRERGEALAAESERRWNAIRPVGVQVPEPPRVLTLEWVDPPFYGGHWVPEQVAQAGGKDVLGHAGRDSGRTSWEDVVQLDPDVIVVMCCGYGLSDNAEFARQVLSHPELRAVRAGQVWGVDANAHFSRPSLGVVRGAEVLAALLRGEESAGESVRVRAELEHHHHHH", "values": [{"measurement": "protein production", "result": "not failed"}]}
{"sequence": "MEKVKKIVLIGASGFVGSALLNEALNRGFEVTAVVRHPEKIKIENEHLKVKKADVSSLDEVCEVCKGADAVISAFNPGWNNPDIYDETIKVYLTIIDGVKKAGVNRFLMVGGAGSLFIAPGLRLMDSGEVPENILPGVKALGEFYLNFLMKEKEIDWVFFSPAADMRPGVRTGRYRLGKDDMIVDIVGNSHISVEDYAAAMIDELEHPKHHQERFTIGYLEHHHHHH", "values": [{"measurement": "protein production", "result": "failed"}]}
{"sequence": "MSLKDFAGRTAFVTGGANGVGIGLVRQLLNQGCKVAIADIRQDSIDKALATLEAEGSGPEVMGVQLDVASREGFKMAADEVEARFGPVSILCNNAGVNLFQPIEESSYDDWDWLLGVNLHGVVNGVTTFVPRMVERVKAGEQKGGHVVNTASMAAFLAAGSPGIYNTTKFAVRGLSESLHYSLLKYEIGVSVLCPGLVKSYIYASDDIRPDALKGEVKPVDKTAVERLAGVHEFGMEPDVIGARVIEAMKANRLHIFSHPDHKEELREVFDEIIAEYQDYPKDPGYDQRVAFEKFRADSFAEARRQSRAADEGHHHHHH", "values": [{"measurement": "protein production", "result": "not failed"}]}
